The target of experiment [1] is cell-surface, GPI-anchored hamster JUNO on HEK293F cells (hamster). Kind of experiment: flow cytometry on cells.
For experiment [2], the target named is cell-surface, GPI-anchored murine JUNO on HEK293F cells (murine) (UniProt Q9EQF4). Description: flow cytometry on cells.
In experiment [3] the target is recombinant murine IZUMO1-human Fc fusion protein (murine) (UniProt Q9D9J7). Kind of experiment: BLI.
Experiment [4] concerns the target IZUMO1-Fc prebound to OBF13 (IgM) (murine) (UniProt Q9D9J7). Kind of experiment: BLI.
Experiment [5] addresses IZUMO1-Fc prebound to OBF13^HAC (scFv) (murine) (UniProt Q9D9J7). Kind of experiment: BLI.
For experiment [6], the target named is cell-surface, GPI-anchored hamster JUNO on HEK293F cells (hamster). Description: flow cytometry on cells. The source holds these as a separate data set.
Experiment [7] addresses T1, cell-surface, GPI-anchored murine JUNO on HEK293F cells (murine, UniProt Q9EQF4 20-222).
T1 sequence: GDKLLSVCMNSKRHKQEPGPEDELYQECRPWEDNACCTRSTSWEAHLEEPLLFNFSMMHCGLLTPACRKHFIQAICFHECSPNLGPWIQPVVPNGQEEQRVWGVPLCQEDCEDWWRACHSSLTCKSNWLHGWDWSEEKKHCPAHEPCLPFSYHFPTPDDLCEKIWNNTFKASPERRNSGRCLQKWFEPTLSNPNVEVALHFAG
Description: flow cytometry on cells.

Where two headings read alike, the source gives them in different places.

As to “IZUMO1-Fc prebound to OBF13 (IgM) (from UniProt Q9D9J7 22-319) (complex)”, the EC50 in experiment [1] is 0.0014 µM; in experiment [2] it was 0.551 µM.

In the case of “hamster JUNO ectodomain (domain or fragment)”, the Kd in experiment [3] is 0.659 µM. For the same molecule, the fold decrease in kon against IZUMO1 alone in experiment [4] and in experiment [5] was 2 fold in each case.

For “murine JUNO ectodomain (domain or fragment)”, the Kd stood at 11 µM in experiment [3], 30.1 µM in experiment [4] and 33.8 µM in experiment [5]. The fold decrease in kon against IZUMO1 alone in experiment [4] and in experiment [5] was 3 fold each time.

B1: recombinant murine IZUMO1-human Fc fusion protein (Fc fusion)
chain: CIKCDQFVTDALKTFENTYLNDHLPHDIHKNVMRMVNHEVSSFGVVTSAEDSYLGAVDENTLEQATWSFLKDLKRITDSDLKGELFIKELLWMLRHQKDIFNNLARQFQKEVLCPNKCGVMSQTLIWCLKCEKQLHICRKSLDCGERHIEVHRSEDLVLDCLLSWHRASKGLTDYSFYRVWENSSETLIAKGKEPYLTKSMVGPEDAGNYRCVLDTINQGHATVIRYDVTVLPPKHSEENQPPNIITQEEHETPVHVTPQTPPGQEPESELYPELHPELYPELIPTVAQNPEKKMKTR
With B1, the EC50 is 0.000198 µM in experiment [6] and 0.0107 µM in experiment [7].

These data come from PMC11912406 (Proceedings of the National Academy of Sciences of the …, 2025).
